Assay results as given in patent US20180355044A1 (CELLERANT THERAPEUTICS, published 2018).

Experiments:
[1] = biological target: T1, C type Lectin Like molecule 1 (CLL-1), human, on cells (human, UniProt Q5QGZ9 1-265); experiment: cell-based or functional assay
T1 sequence (looked up): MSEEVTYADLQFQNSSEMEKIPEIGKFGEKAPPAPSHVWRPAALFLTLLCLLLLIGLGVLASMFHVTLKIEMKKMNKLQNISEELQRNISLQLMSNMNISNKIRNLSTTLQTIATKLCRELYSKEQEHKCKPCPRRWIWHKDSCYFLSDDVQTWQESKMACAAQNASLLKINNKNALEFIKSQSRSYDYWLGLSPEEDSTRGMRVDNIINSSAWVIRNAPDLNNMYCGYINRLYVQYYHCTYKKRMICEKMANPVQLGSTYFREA

[2] = biological target: T1, C type Lectin Like molecule 1 (CLL-1), …; experiment: cell-based or functional assay; remark: listed apart in the source
[3] = biological target: T1, C type Lectin Like molecule 1 (CLL-1), …; experiment: cell-based or functional assay; remark: listed apart in the source
[4] = biological target: T1, C type Lectin Like molecule 1 (CLL-1), …; experiment: flow cytometry on HEL92.1.7-CLL1 cells, MFI of C6-CLT-D202 ADC over MFI of control C0-CLT-D202 ADC
[5] = biological target: T1, C type Lectin Like molecule 1 (CLL-1), …; experiment: flow cytometry on AML5 cells (express CLL-1), MFI of C6-CLT-D202 ADC over MFI of control C0-CLT-D202 ADC
[6] = biological target: T1, C type Lectin Like molecule 1 (CLL-1), …; experiment: flow cytometry on HL-60 cells (express CLL-1), MFI of C6-CLT-D202 ADC over MFI of control C0-CLT-D202 ADC
[7] = biological target: T1, C type Lectin Like molecule 1 (CLL-1), …; experiment: flow cytometry on U937 cells (listed as CLL-1 expressing in paragraph 160), MFI of C6-CLT-D202 ADC over MFI of control C0-CLT-D202 ADC
[8] = biological target: T1, C type Lectin Like molecule 1 (CLL-1), …; experiment: flow cytometry on AML2 cells, MFI of C6-CLT-D202 ADC over MFI of control C0-CLT-D202 ADC; CLL-1 expression of this line not stated
[9] = biological target: T1, C type Lectin Like molecule 1 (CLL-1), …; experiment: flow cytometry on PL21 cells, MFI of C6-CLT-D202 ADC over MFI of control C0-CLT-D202 ADC; CLL-1 expression of this line not stated
[10] = biological target: T1, C type Lectin Like molecule 1 (CLL-1), …; experiment: flow cytometry on EOL-1 cells, MFI of C6-CLT-D202 ADC over MFI of control C0-CLT-D202 ADC; CLL-1 expression of this line not stated
[11] = biological target: T1, C type Lectin Like molecule 1 (CLL-1), …; experiment: flow cytometry on KG-1a cells, MFI of C6-CLT-D202 ADC over MFI of control C0-CLT-D202 ADC; CLL-1 expression of this line not stated
[12] = biological target: T1, C type Lectin Like molecule 1 (CLL-1), …; experiment: flow cytometry on SHI-1 cells, MFI of C6-CLT-D202 ADC over MFI of control C0-CLT-D202 ADC; CLL-1 expression of this line not stated
[13] = biological target: T1, C type Lectin Like molecule 1 (CLL-1), …; experiment: flow cytometry on HNT-34 cells, MFI of C6-CLT-D202 ADC over MFI of control C0-CLT-D202 ADC; CLL-1 expression of this line not stated
[14] = biological target: T1, C type Lectin Like molecule 1 (CLL-1), …; experiment: competition by flow cytometry on 293-CLL1 cells; Alexa488-labelled ChiM31 is displaced by the unlabelled antibody (half-maximal displacement, headed EC50 on the sheet)
Procedure: FIG. 10 is an […] of competitive binding to 293CLL1 cells. ChiM31 was labelled with Alex488. Binding of ChiM31-Alex488 antibody in the presence of ChiM31, HuM31 and mouse M31 starting at 30 μg/ml and serial 3-fold dilutions, was analyzed. Absorbance values MFI (Y-axis) are plotted at each antibody concentration tested (X-axis) in the figure. IC₅₀ values were calculated using GraphPad Prism.
Referring to FIG. 10, ChiM31 was labeled with Alexa488. 293-CLL1 cells were pre-incubated with 1 μg of labeled ChiM31, and then completed with various amount of ChiM31 and HuM31. FACS were performed and data were analyzed and EC50 were calculated.

CLL-1 bearing a His Tag [15] = biological target: T2, CLL-1 bearing a His Tag; experiment: ELISA on His-tagged CLL-1, purified antibody
T2 construct: also called CLL1 His Tag antigen; His Tag antigen; not shown: The exact limits of the construct are not described
T2 chain: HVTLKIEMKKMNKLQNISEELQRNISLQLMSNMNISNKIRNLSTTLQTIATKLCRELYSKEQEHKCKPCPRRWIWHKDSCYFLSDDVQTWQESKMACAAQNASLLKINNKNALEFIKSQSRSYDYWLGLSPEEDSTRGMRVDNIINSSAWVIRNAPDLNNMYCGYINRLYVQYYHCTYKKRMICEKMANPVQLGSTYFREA
Procedure: FIG. 8 is an ELISA analysis of the binding of purified ChM31 (SEQ ID NO:14/SEQ ID NO:10), HuM31-VH2/VL2 (SEQ ID NO:16/SEQ ID NO:12), HuM31-VH3/VL2 (SEQ ID NO:17/SEQ ID NO:12), and HuM31-VH4/VL2 (SEQ ID NO:18/SEQ ID NO:12), antibodies to CLL-1 bearing a His Tag. Each antibody was tested at various concentrations, starting at 1 μg/ml and serial 2-fold dilutions. Absorbance values (Y-axis) are plotted at each antibody concentration tested (X-axis) in the figure.
Referring to FIG. 8, each antibody was tested at various concentrations, starting at 1 μg/mL and serial 2-fold dilutions. Absorbance values (Y-axis) are plotted at each antibody concentration tested (X-axis) in the figure.

CLL-1 bearing a His Tag [16] = biological target: T2, CLL-1 bearing a His Tag; experiment: competitive ELISA on His-tagged CLL-1; binding of mouse M31 is detected, the named antibody is the competitor
Procedure: FIG. 9 is an ELISA analysis of competitive binding affinity of ChM31 (SEQ ID NO:14/SEQ ID NO:10), HuM31-VH1/VL2 (SEQ ID NO:15/SEQ ID NO:12), HuM31-VH2/VL2 (SEQ ID NO:16/SEQ ID NO:12), HuM31-VH3/VL2 (SEQ ID NO:17/SEQ ID NO:12), and HuM31-VH4/VL2 (SEQ ID NO:18/SEQ ID NO:12), antibodies to CLL-1 bearing a His Tag. Binding of mouse M31 antibody in the presence of ChM31, HuM31-VH2/VL2, HuM31-VH3/VL2 or HuM31-VH4/VL2 antibody, starting at 25 μg/ml and serial 3-fold dilutions, was analyzed. Absorbance values (Y-axis) are plotted at each antibody concentration tested (X-axis) in the figure. IC₅₀ values were calculated using GraphPad Prism.
Referring to FIG. 9, binding of mouse M31 antibody in the presence of ChM31, HuM31-VH2/VL2, HuM31-VH3/VL2 or HuM31-VH4/VL2 antibody, starting at 25 μg/mL and serial 3-fold dilutions, was analyzed. Absorbance values (Y-axis) are plotted at each antibody concentration tested (X-axis) in the figure. IC50 values were calculated using GraphPad Prism.

B1: C6-CLT-D202 ADC (humanized, cys-substituted at position 239 anti-CLL1 antibody C6-S239C-CYSMAB conjugated to CLT-D202) (antibody, V domains shown)
VH: EVQLVQSGAEVKKPGASVKMSCKASGYTFTSYFIHWVRQAPGQGLEWIGFINPYNDGSKYAQKFQGRATLTSDKSTSTVYMELSSLRSEDTAVYYCTRDDGYYGYAMDYWGQGTLVTVSS
VL: DIQMTQSPSSLSASVGDRVTLTCRATQELSGYLSWLQQKPGKAIKRLIYAASTLDSGVPSRFSGNRAGTDYTLTISSLQPEDFATYYCLQYAIYPYTFGQGTKLEIK
modifications: S239C in the heavy chain constant region (constant region sequence not given); CLT-D202 drug-linker conjugated to the engineered Cys 239; drug to antibody ratio 1.7
notes: Only variable regions are printed; it carries S239C; also called C6-D202; CLL1-ADC
- IC50, killing of proliferating AML-5 cells [1]: 0.03 µg/mL
- IC50, killing of quiescent AML-5 cells [1]: 0.02 µg/mL
- cell killing of HL-60 cells, relative to the control ADC [1]: > 500 fold
- decrease in IC50, TF1-CLL1 against TF1 cells [1]: ~1000 fold
- IC50, cytotoxicity on TF1-CLL1 cells [2]: 0.008 µg/mL
- IC50, cytotoxicity on AML2 cells [3]: 0.003 µg/mL
- IC50, cytotoxicity on AML5 cells [3]: 0.013 µg/mL
- IC50, cytotoxicity on EOL-1 cells [3]: 0.0137 µg/mL
- IC50, cytotoxicity on HEL92.1.7-CLL1 cells [3]: 0.017 µg/mL
- IC50, cytotoxicity on HL-60 cells [3]: 0.011 µg/mL
- IC50, cytotoxicity on HNT-34 cells [3]: 3.5 µg/mL
- IC50, cytotoxicity on KG-1a cells [3]: 82.8 µg/mL
- IC50, cytotoxicity on PL21 cells [3]: 0.199 µg/mL
- IC50, cytotoxicity on SHI-1 cells [3]: 5.67 µg/mL
- IC50, cytotoxicity on U937 cells [3]: 11.7 µg/mL
- relative MFI C6/C0 [4]: 26.1 ratio
- relative MFI C6/C0 [5]: 15 ratio
- relative MFI C6/C0 [6]: 20 ratio
- relative MFI C6/C0 [7]: 14.7 ratio
- relative MFI C6/C0 [8]: 13 ratio
- relative MFI C6/C0 [9]: 14.7 ratio
- relative MFI C6/C0 [10]: 20.5 ratio
- relative MFI C6/C0 [11]: 1.3 ratio
- relative MFI C6/C0 [12]: 1.4 ratio
- relative MFI C6/C0 [13]: 5.8 ratio

B2: Hu M31 (antibody, V domains shown)
VH: QVQLVQSGAEVKKPGASVKVSCKASGYTFTSYVMHWVRQAPGQRLEWIGYINPYNDGTKYNEKFKGKATITSDTSASTAYMELSSLRSEDTAVYYCARPIYFDNDYFDYWGQGTLVTVSS
VL: DIVMTQSPDSLAVSLGERATINCRASESVDSYGNSFMHWYQQKPGQPPKLLIYLASNLESGVPDRFSGSGSGTDFTLTISSLQAEDVAVYYCQQNNYDPWTFGGGTKVEIK
- EC50 [14]: 1.77 µg/mL

B3: ChM31 (antibody, V domains shown)
VH: EVQLQQSGPELVKPGASVKMSCKASGYTFTSYVMHWVKQKPGQGLEWIGYINPYNDGTKYNEKFKGKATLTSDTSSSTAYMELNSLTSEDSAVYFCARPIYFDNDYFDYWGQGTTLKVSS
VL: TIVLTQSPASLAVSLGQRATISCRASESVDSYGNSFMHWYQQKPGQPPKLLIYLASNLESGVPARFSGSGSRTDFTLTIDPVEADDAATYYCQQNNYDPWTFGGGTKLEIK
notes: chimeric M31; also called Chi M31; ChiM31
- EC50 (read off the curve) (CLL-1 bearing a His Tag [15]): ~0.05 µg/mL
- IC50 (read off the curve) (CLL-1 bearing a His Tag [16]): ~0.6 µg/mL
- EC50 [14]: 0.71 µg/mL

B4: HuM31-VH2/VL2 (antibody, V domains shown)
VH: QVQLVQSGAEVKKPGASVKVSCKASGYTFTSYVMHWVRQAPGQRLEWIGYINPYNDGTKYNEKFKGRATLTSDTSTSTAYMELRSLRSDDTAVYYCARPIYFDNDYFDYWGQGTTVTVSS
VL: DIVMTQSPDSLAVSLGERATINCRASESVDSYGNSFMHWYQQKPGQPPKLLIYLASNLESGVPARFSGSGSGTDFTLTIDPVEADDAATYYCQQNNYDPWTFGGGTKLEIK
notes: humanized M31 variant
- EC50 (read off the curve) (CLL-1 bearing a His Tag [15]): ~0.06 µg/mL

B5: HuM31-VH3/VL2 (antibody, V domains shown)
VH: QVQLVQSGAEVKKPGASVKVSCKASGYTFTSYVMHWVRQAPGRRLEWIGYINPYNDGTKYNEKFKGKATITSDTSASTAYMELSSLRSEDTAVYYCARPIYFDNDYFDYWGQGTLVTVSS
VL: DIVMTQSPDSLAVSLGERATINCRASESVDSYGNSFMHWYQQKPGQPPKLLIYLASNLESGVPARFSGSGSGTDFTLTIDPVEADDAATYYCQQNNYDPWTFGGGTKLEIK
notes: humanized M31 variant
- EC50 (read off the curve) (CLL-1 bearing a His Tag [15]): ~0.04 µg/mL

B6: HuM31-VH4/VL2 (antibody, V domains shown)
VH: QVQLVQSGAEVKKPGASVKVSCKASGYTFTSYVMHWVRQAPGRRLEWIGYINPYNDGTKYNEKFKGRVTITSDTSASTAYMELSSLRSEDTAVYYCARPIYFDNDYFDYWGQGTLVTVSS
VL: DIVMTQSPDSLAVSLGERATINCRASESVDSYGNSFMHWYQQKPGQPPKLLIYLASNLESGVPARFSGSGSGTDFTLTIDPVEADDAATYYCQQNNYDPWTFGGGTKLEIK
notes: humanized M31 variant
- EC50 (read off the curve) (CLL-1 bearing a His Tag [15]): ~0.04 µg/mL
